Patent publication US20160122421A1 (IPIERIAN, published 2016)
Where a chain is given by its changes, count along the chain named.

T1: eTau-4 peptide
T1 construct: also called synthetic eTau4 polypeptide
T1 peptide: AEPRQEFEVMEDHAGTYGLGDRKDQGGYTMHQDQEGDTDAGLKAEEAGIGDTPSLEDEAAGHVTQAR

T2: eTau 1b
T2 construct: member of the group m9
T2 polypeptide: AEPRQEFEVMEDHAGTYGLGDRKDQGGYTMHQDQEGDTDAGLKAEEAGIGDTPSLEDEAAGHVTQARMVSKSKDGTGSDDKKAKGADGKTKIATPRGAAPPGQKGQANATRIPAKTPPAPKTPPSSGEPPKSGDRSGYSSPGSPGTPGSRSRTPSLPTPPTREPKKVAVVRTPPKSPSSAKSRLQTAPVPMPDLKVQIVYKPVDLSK

T3: eTau 2
T3 construct: member of the group m9
T3 polypeptide: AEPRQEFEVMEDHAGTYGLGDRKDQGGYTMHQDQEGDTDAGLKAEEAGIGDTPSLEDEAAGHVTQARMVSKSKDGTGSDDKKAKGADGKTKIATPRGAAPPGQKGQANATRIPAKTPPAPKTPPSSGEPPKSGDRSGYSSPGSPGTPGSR

B1: humanized IPN002 variant VH2/Vk2 (antibody, V domains shown)
VH: EVHLVESGGALVKPGGSLRLSCAASGFSFSKYGMSWVRQAPGKGLEWVATISSSGSRTYYPDSVKGRFTISRDNAKNTLYLQMNSLRAEDTAMYYCSISWDGAMDYWGQGTTVTVSS
VL: DVVMTQSPLSLPVTLGQPASISCKSSQSIVHSNGNTYLEWYLQKPGQSPQLLVYKVSNRFSGVPDRFSGSGSGTDFTLKISRVEAEDVGTYYCFQGSLVPWAFGGGTKVEIK
B2: IPN002 (antibody, V domains shown)
VH: B1 VH with R19K, A40T, G42D, G44R, R67Q, N84S, R87K, A88S, T112S
VL: B1 VL with V3L, S7T, T14S, Q17D, P18Q, Q50K, V88L, V109L
notes: It is the murine parental antibody; also called IPN2; IPN-2
B3: VH1/Vk3 (antibody, V domains shown)
VH: B1 VH with N84S, R87K, A88S, T112S
VL: B1 VL with T90V
notes: member of the group m7; also called humanized IPN002 variant VH1/Vk3
B4: VH1/Vk2 (antibody, V domains shown)
VH: B1 VH with N84S, R87K, A88S, T112S
VL: B1 VL
notes: member of the group m7; also called humanized IPN002 variant VH1/Vk2
B5: VH2/Vk4 (antibody, V domains shown)
VH: B1 VH
VL: B1 VL with V53I, T90V
notes: member of the group m7; also called humanized IPN002 variant VH2/Vk4
B6: humanized IPN002 variant VH2/Vk3 (antibody, V domains shown)
VH: B1 VH
VL: B1 VL with T90V
B7: VH4/Vk1 (antibody, V domains shown)
VH: B1 VH with H3Q, S97A
VL: B1 VL with V3L
notes: member of the group m7; also called humanized IPN002 variant VH4/Vk1
B8: VH3/Vk2 (antibody, V domains shown)
VH: B1 VH with H3Q
VL: B1 VL
notes: member of the group m7; also called humanized IPN002 variant VH3/Vk2
B9: humanized IPN002 variant VH2/Vk1 (antibody, V domains shown)
VH: B1 VH
VL: B1 VL with V3L
B10: VH1/Vk1 (antibody, V domains shown)
VH: B1 VH with N84S, R87K, A88S, T112S
VL: B1 VL with V3L
notes: member of the group m7; also called humanized IPN002 variant VH1/Vk1
B11: VH3/Vk1 (antibody, V domains shown)
VH: B1 VH with H3Q
VL: B1 VL with V3L
notes: member of the group m7; also called humanized IPN002 variant VH3/Vk1
B12: VH1/Vk4 (antibody, V domains shown)
VH: B1 VH with N84S, R87K, A88S, T112S
VL: B1 VL with V53I, T90V
notes: member of the group m7; also called humanized IPN002 variant VH1/Vk4
B13: VH3/Vk3 (antibody, V domains shown)
VH: B1 VH with H3Q
VL: B1 VL with T90V
notes: member of the group m7; also called humanized IPN002 variant VH3/Vk3
B14: VH4/Vk4 (antibody, V domains shown)
VH: B1 VH with H3Q, S97A
VL: B1 VL with V53I, T90V
notes: member of the group m7; also called humanized IPN002 variant VH4/Vk4
B15: VH3/Vk4 (antibody, V domains shown)
VH: B1 VH with H3Q
VL: B1 VL with V53I, T90V
notes: member of the group m7; also called humanized IPN002 variant VH3/Vk4
B16: VH4/Vk2 (antibody, V domains shown)
VH: B1 VH with H3Q, S97A
VL: B1 VL
notes: member of the group m7; also called humanized IPN002 variant VH4/Vk2
B17: VH4/Vk3 (antibody, V domains shown)
VH: B1 VH with H3Q, S97A
VL: B1 VL with T90V
notes: member of the group m7; also called humanized IPN002 variant VH4/Vk3

Tests used:
eTau-4 peptide = target: T1, eTau-4 peptide; experiment: relative binding affinity, method not named (Table 4); sixth column, headed eTau 4
eTau 1b = target: T2, eTau 1b; experiment: relative binding affinity, method not named (Table 4)
eTau 2 = target: T3, eTau 2; experiment: as above
[1] = target: eTau1a (amino acids 2-166 of fetal tau) (Homo sapiens (Human), UniProt P10636 2-541); experiment: as above
[2] = target: T4, 383 amino acid recombinant tau (UniProt P10636-6 1-383, biotinylated where printed as biotin-rTau383 (position not given)); experiment: as above
T4 construct: also called rTau383

[3] = target: eTau 4 (FIG. 17); experiment: relative binding affinity, method not named (Table 4); fifth column, headed eTau 4
[4] = target: T4, 383 amino acid recombinant tau; experiment: Octet

T4 sequence (P10636 other isoform, or with tags, fused parts or gaps limits assumed): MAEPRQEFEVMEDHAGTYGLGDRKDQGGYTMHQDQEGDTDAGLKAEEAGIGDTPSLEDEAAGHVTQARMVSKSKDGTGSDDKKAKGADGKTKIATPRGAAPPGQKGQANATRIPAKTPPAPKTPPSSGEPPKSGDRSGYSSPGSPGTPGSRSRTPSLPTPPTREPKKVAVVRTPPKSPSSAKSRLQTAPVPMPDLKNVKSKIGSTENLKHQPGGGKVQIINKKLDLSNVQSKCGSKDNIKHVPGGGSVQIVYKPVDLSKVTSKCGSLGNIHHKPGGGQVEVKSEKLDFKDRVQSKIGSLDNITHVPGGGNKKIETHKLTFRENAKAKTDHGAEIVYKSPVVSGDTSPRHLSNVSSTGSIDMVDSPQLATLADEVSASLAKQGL

| Binder | Kd (eTau-4 peptide) [nM] | Kd (eTau 1b) [nM] | Kd (eTau 2) [nM] | Kd [1] [nM] | Kd [2] [nM] | Kd [3] [nM] | Kd [4] [nM] | koff [4] [s⁻¹] | kon [4] [M⁻¹ s⁻¹] |
| --- | --- | --- | --- | --- | --- | --- | --- | --- | --- |
| B1 | 0.394 | 0.229 | 0.283 | 0.327 | 0.199 | 0.294 | 0.232 | 4.75e-05 | 205000 |
| B2 | – | – | – | – | – | – | 0.206 | 4.78e-05 | 233000 |
| B3 | 0.761 | 0.59 | 0.444 | 0.291 | 0.175 | 0.478 | 1.28 | 0.000233 | 182000 |
| B4 | 0.633 | 0.558 | 0.361 | 0.212 | 0.121 | 0.321 | 0.446 | 8.74e-05 | 196000 |
| B5 | 0.671 | 0.52 | 0.354 | 0.343 | 0.248 | 0.418 | 1.66 | 0.000236 | 142000 |
| B6 | 0.411 | 0.287 | 0.261 | 0.327 | 0.223 | 0.219 | 1.73 | 0.000232 | 134000 |
| B7 | 0.498 | 0.359 | 0.405 | 0.198 | 0.187 | 0.28 | 2.12 | 0.000297 | 140000 |
| B8 | 0.701 | 0.614 | 0.408 | 0.282 | 0.258 | 0.589 | 0.577 | 0.000107 | 185000 |
| B9 | 0.321 | 0.215 | 0.225 | 0.281 | 0.242 | 0.369 | – | – | – |
| B10 | 0.577 | 0.737 | 0.465 | 0.294 | 0.183 | 0.358 | 0.0426 | 8.75e-06 | 206000 |
| B11 | 0.921 | 0.529 | 0.705 | 0.241 | 0.236 | 0.454 | 1.99 | 0.000257 | 129000 |
| B12 | 0.869 | 0.597 | 0.427 | 0.252 | 0.286 | 0.269 | 0.571 | 9.52e-05 | 167000 |
| B13 | 0.665 | 0.689 | 0.471 | 0.22 | 0.224 | 0.469 | 0.169 | 3.15e-05 | 187000 |
| B14 | 1.03 | 0.535 | 0.564 | 0.325 | 0.379 | 0.462 | 0.812 | 0.000126 | 156000 |
| B15 | 0.586 | 0.382 | 0.447 | 0.216 | 0.255 | 0.381 | 0.475 | 0.0001 | 211000 |
| B16 | 0.467 | 0.483 | 0.451 | 0.191 | 0.16 | 0.291 | 1.88 | 0.000307 | 163000 |
| B17 | 0.629 | 0.313 | 0.473 | 0.178 | 0.276 | 0.636 | 0.571 | 9.39e-05 | 164000 |
